First the molecules themselves.
T1: natriuretic peptide receptor-B (human)
T1 chain: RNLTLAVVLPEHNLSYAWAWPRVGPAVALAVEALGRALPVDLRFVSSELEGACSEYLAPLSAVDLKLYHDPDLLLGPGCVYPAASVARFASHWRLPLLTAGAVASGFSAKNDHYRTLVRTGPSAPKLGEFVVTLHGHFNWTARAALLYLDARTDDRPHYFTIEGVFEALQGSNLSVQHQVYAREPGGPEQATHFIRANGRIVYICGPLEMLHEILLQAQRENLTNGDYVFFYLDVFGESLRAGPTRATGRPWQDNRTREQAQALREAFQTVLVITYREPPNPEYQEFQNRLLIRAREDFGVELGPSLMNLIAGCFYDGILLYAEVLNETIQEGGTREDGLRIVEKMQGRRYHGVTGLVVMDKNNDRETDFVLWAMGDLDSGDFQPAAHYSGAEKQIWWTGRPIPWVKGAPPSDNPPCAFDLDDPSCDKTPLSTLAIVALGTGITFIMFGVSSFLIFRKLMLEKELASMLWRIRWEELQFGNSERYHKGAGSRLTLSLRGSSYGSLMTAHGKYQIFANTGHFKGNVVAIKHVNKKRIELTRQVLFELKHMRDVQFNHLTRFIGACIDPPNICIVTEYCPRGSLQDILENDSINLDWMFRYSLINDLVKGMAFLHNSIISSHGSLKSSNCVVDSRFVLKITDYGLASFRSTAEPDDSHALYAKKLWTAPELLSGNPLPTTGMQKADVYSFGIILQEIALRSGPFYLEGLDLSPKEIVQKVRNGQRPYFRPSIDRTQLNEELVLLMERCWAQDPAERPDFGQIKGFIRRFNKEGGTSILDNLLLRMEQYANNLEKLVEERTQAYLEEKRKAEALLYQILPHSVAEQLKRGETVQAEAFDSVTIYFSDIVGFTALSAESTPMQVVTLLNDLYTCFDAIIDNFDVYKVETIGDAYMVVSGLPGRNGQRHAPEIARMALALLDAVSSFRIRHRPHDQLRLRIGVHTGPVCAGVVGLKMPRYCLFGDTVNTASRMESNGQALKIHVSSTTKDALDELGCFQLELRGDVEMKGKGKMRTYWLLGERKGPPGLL

B1: JAL-1339 (peptide)
peptide: [AR‑201‑58]F[dR]L[Hyp][NMeL]DRI-NH2
modifications: reading uncertain; also: printed as (AR-201-58)-Phe-arg-Leu-Hyp-Nml-Asp-Arg-Ile-NH2
B2: JAL-1341 (peptide)
peptide: [AR‑201‑62]F[dR]L[Hyp][NMeL]DRI-NH2
modifications: reading uncertain; also: printed as (AR-201-62)-Phe-arg-Leu-Hyp-Nml-Asp-Arg-Ile-NH2
B3: JAL-1342 (peptide)
peptide: [AR‑201‑69]F[dR]L[Hyp][NMeL]DRI-NH2
modifications: reading uncertain; also: printed as (AR-201-69)-Phe-arg-Leu-Hyp-Nml-Asp-Arg-Ile-NH2
B4: JAL-1340 (peptide)
peptide: [AR‑201‑59]F[dR]L[Hyp][NMeL]DRI-NH2
modifications: reading uncertain; also: printed as (AR-201-59)-Phe-arg-Leu-Hyp-Nml-Asp-Arg-Ile-NH2
B5: JAL-1348 (peptide)
peptide: Octanoyl-[Sni]F[dL]L[Pro(trans-4-NH2)](Et2)[NMeL]DRI-NH2
modifications: reading uncertain; also: printed as Occ-Sni-Phe-leu-Leu-Tap(Et2)-Nml-Asp-Arg-Ile-NH2
B6: JAL-0647 (peptide)
peptide: XXFGLKLDRI
HELM: PEPTIDE1{[CCCCCC(=O)[*:2]].[O=C(c1cccc(CN[*:1])c1)[*:2]].F.G.L.K.L.D.R.I.[am]}$$$$V2.0
SMILES: CCCCCC(=O)NCc1cccc(C(=O)N[C@@H](Cc2ccccc2)C(=O)NCC(=O)N[C@@H](CC(C)C)C(=O)N[C@@H](CCCCN)C(=O)N[C@@H](CC(C)C)C(=O)N[C@@H](CC(=O)O)C(=O)N[C@@H](CCCNC(=N)N)C(=O)N[C@H](C(N)=O)[C@@H](C)CC)c1
B7: JAL-1324 (peptide)
peptide: XFRLXXDRI
HELM: PEPTIDE1{[CCCCCCCCS(=O)(=O)CCC(=O)[*:2]].F.[dR].L.[Hyp].[meL].D.R.I.[am]}$$$$V2.0; N-terminus assumed
SMILES: CCCCCCCCS(=O)(=O)CCC(=O)N[C@@H](Cc1ccccc1)C(=O)N[C@H](CCCNC(=N)N)C(=O)N[C@@H](CC(C)C)C(=O)N1C[C@H](O)C[C@H]1C(=O)N(C)[C@@H](CC(C)C)C(=O)N[C@@H](CC(=O)O)C(=O)N[C@@H](CCCNC(=N)N)C(=O)N[C@H](C(N)=O)[C@@H](C)CC

Numbered stars: 1 amine (or outer) side, 2 acyl side, 3 side chain; on linkers, the order of the positions; unused ones are H or OH. Square brackets hold non-standard residues; d marks the D form. Primed or numbered codes have the meaning given here. Ends that are not written are not given here. * marks the point of attachment. Pro(trans-4-NH2) = O=C([C@@H]1C[C@@H](N[*:3])CN1[*:1])[*:2]; Sni = (S)-nipecotic acid, O=C([C@H]1CCCN([*:1])C1)[*:2]; Egg = 2-Amino-3-piperidin-4-yl-propionic acid; Fhy = Amino-piperidin-3-yl-acetic acid; Hyp = O=C(O)[C@@H]1C[C@@H](O)CN1; NMeL = CN[C@@H](CC(C)C)C(=O)O; dDap(Me2)′ = not defined here; AR‑201‑58 = not defined here; AR‑201‑59 = not defined here; AR‑201‑62 = not defined here; AR‑201‑69 = not defined here; Tle = CC(C)(C)[C@H](N)C(=O)O; dNle = CCCC[C@@H](N)C(=O)O; dOrn = NCCC[C@@H](N)C(=O)O; Octanoyl = CCCCCCCC(=O)*; Orn = NCCC[C@H](N)C(=O)O; dDap = NC[C@@H](N)C(=O)O; Ac5c = NC1(C(=O)O)CCCC1; Api = NC1(C(=O)O)CCNCC1; Et2 = not defined here; Hexanoyl = CCCCCC(=O)*; Nbt = 4-butyl-thiazole; Oct = not defined here; Sbt = 5-butyl-thiazole; Occ = octanoic acid; βAla = NCCC(=O)O Some results are limits rather than exact numbers.

The target in this assay is T1, natriuretic peptide receptor-B. The assay can be described thus: cell-based or functional assay.
For [Sbt][Sni]F[dR]L[Hyp][NMeL]DRI-NH2 [JAL-1343], the “EC50 group, cGMP in GTM-3 cells” value is no more than 1 µM.

On to B1, for which the “EC50 group, cGMP in GTM-3 cells” value is no more than 15 µM.

[Occ][dA]F[dL]L[Hyp][NMeL]DR[Ac5c]-NH2 [JAL-1335]: the “EC50 group, cGMP in GTM-3 cells” value is no more than 5 µM.

In the case of [Sbt][dA]F[dR]L[Hyp][NMeL]DRI-NH2 [JAL-1345], the “EC50 group, cGMP in GTM-3 cells” value was no more than 15 µM.

For [Occ][dA]F[Egg]L[Hyp][NMeL]DRI-NH2 [JAL-1337], the “EC50 group, cGMP in GTM-3 cells” value was no more than 5 µM.

Regarding [Occ][dA]F[dR]L[Hyp][NMeL]D[Orn]I-NH2 [JAL-1327], the “EC50 group, cGMP in GTM-3 cells” value was no more than 5 µM.

Octanoyl-[dA]F[Api]L[Pro(trans-4-NH2)][NMeL]DRI-NH2 [JAL-1350]: the “EC50 group, cGMP in GTM-3 cells” value was no more than 1 µM.

For the molecule [Oct][Sni]F[dL]L[Pro(trans-4-NH2)][NMeL]DRI-NH2 (reading uncertain; also: printed as Oct-Sni-Phe-leu-Leu-Tap-Nml-Asp-Arg-Ile-NH2) [JAL-1326], the “EC50 group, cGMP in GTM-3 cells” value is no more than 1 µM.

On to Octanoyl-[dA]F[dDap](Me2)L[Pro(trans-4-NH2)][NMeL]DRI-NH2 [JAL-1347], for which the “EC50 group, cGMP in GTM-3 cells” value is no more than 5 µM.

Take [Occ][dA]F[dL]L[Hyp][NMeL]D[Orn]I-NH2 [JAL-1328]: the “EC50 group, cGMP in GTM-3 cells” value is no more than 5 µM.

Take [Occ][Sni]F[dL]L[Pro(trans-4-NH2)](Ac)[NMeL]DRI-NH2 [JAL-1321]: the “EC50 group, cGMP in GTM-3 cells” value is no more than 5 µM.

Octanoyl-[dA]F[dL]L[Hyp][NMeL]DR[Tle]-NH2 [JAL-1352]: the “EC50 group, cGMP in GTM-3 cells” value is no more than 1 µM.

[Occ][Sni]FGL[Pro(trans-4-NH2)][NMeL]DRI-NH2 [JAL-1320]: the “EC50 group, cGMP in GTM-3 cells” value was no more than 1 µM.

For B2, the “EC50 group, cGMP in GTM-3 cells” value was no more than 5 µM.

On to [Occ][dA]F[Fhy]L[Hyp][NMeL]DRI-NH2 [JAL-1336], for which the “EC50 group, cGMP in GTM-3 cells” value was no more than 1 µM.

As for [Occ][Sni]F[dL]L[Pro(trans-4-NH2)](Gly)[NMeL]DRI-NH2 [JAL-1322], the “EC50 group, cGMP in GTM-3 cells” value was no more than 1 µM.

On to [Occ][Sni]F[dDap(Me2)′]L[Pro(trans-4-NH2)][NMeL]DRI-NH2 [JAL-1325], for which the “EC50 group, cGMP in GTM-3 cells” value was no more than 1 µM.

As to [Occ][Sni]F[dL]L[Pro(trans-4-NH2)](βAla)[NMeL]DRI-NH2 [JAL-1323], the “EC50 group, cGMP in GTM-3 cells” value is no more than 1 µM.

Turning to B3, the “EC50 group, cGMP in GTM-3 cells” value was no more than 5 µM.

For the molecule [Nbt][Sni]F[dR]L[Hyp][NMeL]DRI-NH2 [JAL-1344], the “EC50 group, cGMP in GTM-3 cells” value is no more than 5 µM.

As for B4, the “EC50 group, cGMP in GTM-3 cells” value was no more than 15 µM.

Consider [Occ][dA]F[dR]L[Hyp][NMeL]VRI-NH2 [JAL-1331], for which the “EC50 group, cGMP in GTM-3 cells” value is no more than 5 µM.

For the molecule Octanoyl-[Sni]F[dOrn]L[Pro(trans-4-NH2)][NMeL]DRI-NH2 [JAL-1318], the “EC50 group, cGMP in GTM-3 cells” value was no more than 1 µM.

As for Octanoyl-[Sni]F[dNle]L[Pro(trans-4-NH2)][NMeL]DRI-NH2 [JAL-1319], the “EC50 group, cGMP in GTM-3 cells” value is no more than 5 µM.

Consider B5, for which the “EC50 group, cGMP in GTM-3 cells” value was no more than 5 µM.

Turning to [Occ][dA]F[dL]L[Hyp][NMeL]TRI-NH2 [JAL-1334], the “EC50 group, cGMP in GTM-3 cells” value is no more than 5 µM.

As to B6, the “EC50 group, cGMP in GTM-3 cells” value was no more than 15 µM.

On to Hexanoyl-S[dP]FGLKLDRI-NH2 [JAL-0638], for which the “EC50 group, cGMP in GTM-3 cells” value is no more than 15 µM.

As for Octanoyl-[Sni]F[dL]L[Pro(trans-4-NH2)](Et)[NMeL]DRI-NH2 [JAL-1349], the “EC50 group, cGMP in GTM-3 cells” value is no more than 1 µM.

On to [Occ][Sni]F[Api]L[Pro(trans-4-NH2)][NMeL]DRI-NH2 [JAL-1351], for which the “EC50 group, cGMP in GTM-3 cells” value is no more than 1 µM.

For Hexanoyl-G[dP]FGLKLDRI-NH2 [JAL-0636], the “EC50 group, cGMP in GTM-3 cells” value is no more than 15 µM.

For the molecule [Occ][dA]F[dR]L[Hyp][NMeL]TRI-NH2 [JAL-1333], the “EC50 group, cGMP in GTM-3 cells” value was no more than 5 µM.

Take Nbt-[dA]F[dR]L[Hyp][NMeL]DRI-NH2 [JAL-1346]: the “EC50 group, cGMP in GTM-3 cells” value is no more than 15 µM.

In the case of [Occ][dA]F[Api]L[Hyp][NMeL]DRI-NH2 [JAL-1338], the “EC50 group, cGMP in GTM-3 cells” value was no more than 1 µM.

For Hexanoyl-[dA][dA]FGLKLDRI-NH2 [JAL-0635], the “EC50 group, cGMP in GTM-3 cells” value was no more than 15 µM.

Turning to B7, the “EC50 group, cGMP in GTM-3 cells” value is no more than 5 µM.
